# Target: GST-Rheb protein (UniProt Q15382)
# Assay: BLI
# Chain of GST-Rheb protein (Q15382 1-169): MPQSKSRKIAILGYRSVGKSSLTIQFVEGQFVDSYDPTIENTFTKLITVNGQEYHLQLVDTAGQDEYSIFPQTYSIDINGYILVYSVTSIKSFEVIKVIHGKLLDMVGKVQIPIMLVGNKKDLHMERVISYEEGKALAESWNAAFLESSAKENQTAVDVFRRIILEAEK
substance,measurement,value
"His-IL-37d, recombinant human IL-37d protein with a TAT peptide (pET-22b-TAT-his-IL-37d; mature IL-37d 21–197aa) (from UniProt Q9NZH6-4 21-197)",Kd,54.2 nM

# — PMC11192940
